Assay results reported in patent publication US20220227882A1 (TRUSTEES OF TUFTS COLLEGE, published 2022).

Columns and labels:
[1] = biological target: T1, Recombinant human ADAM9 (R&D Systems, 939-AD-020) (human, UniProt Q13443 29-697); assay: ELISA, coated recombinant ADAM9
T1 sequence (looked up): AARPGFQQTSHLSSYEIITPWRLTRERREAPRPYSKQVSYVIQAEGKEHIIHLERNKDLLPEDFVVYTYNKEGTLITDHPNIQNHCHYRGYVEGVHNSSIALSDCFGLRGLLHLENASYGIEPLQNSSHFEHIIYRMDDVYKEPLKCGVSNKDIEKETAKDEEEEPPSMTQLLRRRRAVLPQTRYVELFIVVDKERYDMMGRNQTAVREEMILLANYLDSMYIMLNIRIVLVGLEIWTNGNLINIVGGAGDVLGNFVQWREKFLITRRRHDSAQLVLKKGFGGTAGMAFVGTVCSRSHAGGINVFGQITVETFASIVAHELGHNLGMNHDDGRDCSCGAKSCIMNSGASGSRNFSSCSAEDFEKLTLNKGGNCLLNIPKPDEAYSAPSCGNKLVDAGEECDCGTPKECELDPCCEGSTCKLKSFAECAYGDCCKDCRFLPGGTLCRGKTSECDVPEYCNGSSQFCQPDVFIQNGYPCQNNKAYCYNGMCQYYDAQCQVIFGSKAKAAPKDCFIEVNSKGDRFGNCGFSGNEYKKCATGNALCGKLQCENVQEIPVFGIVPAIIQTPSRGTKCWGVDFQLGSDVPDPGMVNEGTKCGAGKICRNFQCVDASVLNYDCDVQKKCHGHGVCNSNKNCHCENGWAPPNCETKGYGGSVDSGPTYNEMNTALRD

[2] = biological target: T1, Recombinant human ADAM9 (R&D Systems, …); assay: ELISA, recombinant ADAM9
Description: ELISA assays were also used to test hybridoma clones, subclones and purified ADP antibodies for specificity of ADAM8 binding, i.e., binding to rHuADAM8 (Acro Biosystems, AD8-H5223) was compared to binding to closely related recombinant human ADAM proteins: […], ADAM12 (Acro Biosystems, AD2-H5228) and ADAM15 (Sino Biological, 10517-H08H). For analysis of clones and subclones, 50 μl of cell supernatants were used. A test bleed sample (1:1000) was used as a positive control. Hybridoma culture medium or a pre-bleed serum sample (1:1000) was used as a negative control. Purified mouse ADPs were assessed at 1 μg/ml vs normal mouse IgG and with a test bleed sample as a positive control. ADP binding was detected with a goat anti-mouse IgG (Fc specific)-peroxidase antibody (1:5000, Sigma-Aldrich, A0168).

[3] = biological target: T2, ADAM33 expressed in transiently transfected HEK293 cells (HEK293-ADAM33) (UniProt Q9BZ11 204-813); assay: FACS, fixed and permeabilized HEK293-ADAM33 cells
T2 construct: whole, on cells; Expression in HEK293 cells is mainly intracellular; also called HEK293-A33; A33
T2 sequence (looked up): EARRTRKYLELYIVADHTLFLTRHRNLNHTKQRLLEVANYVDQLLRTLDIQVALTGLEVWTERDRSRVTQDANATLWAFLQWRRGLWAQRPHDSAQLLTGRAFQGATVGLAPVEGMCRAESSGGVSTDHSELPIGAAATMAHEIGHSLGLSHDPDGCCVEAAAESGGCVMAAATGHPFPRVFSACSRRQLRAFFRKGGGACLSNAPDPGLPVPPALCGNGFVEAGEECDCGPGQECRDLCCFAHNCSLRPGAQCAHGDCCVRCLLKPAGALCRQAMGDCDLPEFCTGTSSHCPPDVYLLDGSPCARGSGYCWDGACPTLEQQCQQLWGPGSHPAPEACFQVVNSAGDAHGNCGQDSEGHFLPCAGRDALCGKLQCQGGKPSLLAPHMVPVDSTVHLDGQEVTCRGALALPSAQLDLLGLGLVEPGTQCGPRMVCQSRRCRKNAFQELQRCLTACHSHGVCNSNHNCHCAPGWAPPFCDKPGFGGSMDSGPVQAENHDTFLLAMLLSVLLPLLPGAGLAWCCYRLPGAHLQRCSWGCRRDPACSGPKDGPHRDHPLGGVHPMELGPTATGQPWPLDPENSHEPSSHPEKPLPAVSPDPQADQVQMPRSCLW
Description: ADP2 and ADP13 were also tested for cross-reactivity to the ADAM8 related protein ADAM33 using a variation of the above FACS protocol, which included steps for cell fixation and permeabilization. FACS was performed as an ELISA assay was precluded due to the lack of commercially available recombinant ADAM33. Cell fixation and permeabilization steps were needed as ADAM33 expression in HEK293 cells is primarily intracellular. HEK293 cells were transiently transfected over a 48-hr period with an ADAM33 construct (Clone ID HsCD00419548, Harvard Plasmid Information Database) or a control EV DNA (Plasmid #25890, Addgene) using Lipofectamine® 2000. Single cell suspensions (1×10⁶ cells/ml) were prepared in FACS buffer. Cell samples (1 ml) were centrifuged, resuspended in 50 μL cold 4% paraformaldehyde and incubated for 20 minutes at 4° C. in the dark with occasional shaking. Cells were then washed once with 1 ml FACS buffer, and then twice with 0.1% saponin FACS buffer. Samples were exposed to primary antibodies in 50 μL of 0.1% saponin FACS buffer for 30 minutes at 4° C. For ADP2, ADP13 and their respective IgG2b and IgG1 isotype matched controls, 2 μg of antibody were used. […] After three washes in 0.1% saponin FACS buffer, cells were resuspended in 500 μL FACS buffer and analyzed on a BD FACSCalibur™ machine.

B1: ADP3 (antibody, IgG1, V domains shown)
VH: EVKLEESGGGLVQPGGSMKLSCAASGFTFSDAWMDWVRQSPEKGLEWVAEIRGKVNNLATYYVESVKGRFTISRDDSKSSVYLQMNSLRAEDTGIYYCLGRYDATYAMDYWGQGTSVTVSS
VL: DVVMTQTPLSLPVSLGDQASISCRSSQSLVHSDGNTYLHWYLQKPGQSPKLLIYKLSNRFSGVPDRFSGSGSGTDFTLKISRVEAEDLGVYFCSQSTHVPWTFGGGTKLEIK
With B1 the “OD 450nm” value [1] was 0.15 OD450nm and the binding result [2] was “no binding (tested: 1 µg/ml)”.

B2: ADP13 (antibody, IgG1, V domains shown)
VH: EVQLQQSGPEMVKPGTSVKISCKASGYTFTDYYINWVKQSHGKSLEWIGDISPNIGGATYNPKFKGKAILTVDKSARTAYMELRSLTSEDSAVYCCTRGGSSYPYFYAMDYWGQGTSVTVSS
VL: DIVMSQSPSSLAVSVGEKVTMSCKSSQSLLYSSNQKKYLAWYQQKPGQSPKLLIYWASTRESGVPDRFTGSGSGTDFTLTISSVKAEDLAVYYCQQFYSYPYTFGGGTKLEINR
notes: also called mADP13; mouse ADP13
B2 was tested, and the “OD 450nm” value [1] was 0.12 OD450nm, the binding result [1] was “no binding (tested: 1 µg/ml)” and the binding result [3] was “no binding (tested: 2 µg antibody per sample)”.

B3: ADP2 (antibody, V domains shown)
VH: EVKLVESGGGLVQPGGSLSLSCAASGFSFPDYYMSWVRQPPGKALEWLGFIRDSANGYTTEYIASVKGRFTFSRDNSQSILYLQMNALRAEDSATYYCARYSRYYGMDYWGQGTSVTVSS
VL: SIVMTQTPKILLVSAGDRVTITCKASQTVNYDVAWYQQKPGQSPKPVIYFASNRYTGVPDRFTGSGFGTDFTFTISTVQAEDLAVYFCQQDYSAPWTFGGGTKLEIK
notes: also called mADP2; mouse ADP2
B3 was tested, and the “OD 450nm” value [1] was 0.07 OD450nm, the binding result [1] was “no binding (tested: 1 µg/ml)” and the binding result [3] was “no binding (tested: 2 µg antibody per sample)”.
